Data on 132 substances can be found in the supplement of paper PMC12042874.

A short description of this data set: amyloid nucleation score (Sup35N fusion, yeast selection) (log enrichment); library NNK3; higher = more nucleation; inactive = no reads after selection. The essentials: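 Sup35N fusions to peptides of 20 random codons were expressed in psi-negative yeast, induced 24 hours with 100 μM copper sulfate, and grown 7 days at 30°C on medium lacking adenine and uracil. Input and output plasmid inserts were sequenced by Illumina. The nucleation score is the DiMSum log enrichment of output over input reads, centred on the mode score of non-aggregating sequences. Sequences with under 100 input reads were excluded.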

± gives the uncertainty stated by the source.

GLVVWKNGINWLSEGVTIAR yielded an amyloid nucleation score of 0.567 ± 0.25. Next, GWSYRDLTMVGVNELFV: “inactive”; LFTSFYVSPYM: “inactive”. The result for RKVEG reads “inactive”. The result for IDCILVTGLHVDLLEWQKRQ reads 2.03 ± 0.086; that for GVMVPTALLISNPSRRFHWL, “inactive”; that for GLVYNNIWISLYFNGATVES, 2.08 ± 0.06. Regarding ELSHQVCYSVGCACETSDGQ, the amyloid nucleation score result is “inactive”.

SCVPWICWNCQVPGL gave an amyloid nucleation score of 0.881 ± 0.18.

With PEFDLCDINSSLGSMRFWQW, the amyloid nucleation score result was “inactive”.

As for YLRVQDLWWNKFENARHSSI, the amyloid nucleation score result is “inactive”. Next, SPRNMWI: “inactive”. The result for NCKLFFSFGM reads 1.49 ± 0.094; that for CFYEGYWREITNMAFLILRP, “inactive”; that for GWTLQWIVWI, 0.081 ± 0.81. LYSGFRGMPKYTDKNCMGRV: the amyloid nucleation score result was “inactive”.

QCVRSMLEELRIGYKVHRQS: the amyloid nucleation score result was “inactive”. NVLLYNRKGQFSKCLCKSVD: the amyloid nucleation score entry is “inactive”.

In the case of FCDALMIVTEFGEGLWARWR, the amyloid nucleation score entry is “inactive”. VFSEWYVFHGQEVSTIHCAH: the amyloid nucleation score result was “inactive”. Next, YWIEAPIFYPLFTAIVKQAM: 0.294 ± 0.49; CIMFVFILLQYAFYIYILLV: “inactive”. Next, CDSWAYCRGCFRFML: -0.092 ± 1.1; LVRVGSSNYLVNQIRPNISA: “inactive”; VHYKVKGSLPFCCGYFNSLW: 1.67 ± 0.079. Regarding CFVAGYRSIGLLRFITIFCV, the amyloid nucleation score result was “inactive”.

As for HMSQYGRLCKMATLTFT, the amyloid nucleation score result was “inactive”. For SDCKMISHFGEVINILSYKI, the amyloid nucleation score result is “inactive”.

Turning to LRSVFSRYFGQVHEFSRQRY, the amyloid nucleation score entry is “inactive”. The result for YNFVPVFHVNMSVFLCILVL reads 2.43 ± 0.072; that for ISEVLLCAFVVYIMRKR, 0.953 ± 0.11. The result for SSIWSGMSLFGFREIMSYVI reads “inactive”. Next, CYVPVKGLYMPPYGTLRLWG: “inactive”; YFCVCSCVDFGYASYRGYAA: “inactive”; VTHLPTDIGMC: 0.894 ± 0.12. For the substance QVGPWLDNSNSFCDDIKGMC, the amyloid nucleation score entry is “inactive”. The result for FLCWIYDECKGVRCVRLGAI reads “inactive”; that for FNAYNIFVKVPNVMPSS, 2.19 ± 0.09; that for DCVRVRVLKSGTYLLYRSEA, “inactive”.

Turning to FDIFQGDINLHFLDVNITR, the amyloid nucleation score is 0.397 ± 0.75.

For the substance WWPLSLGNNVGPLHCRSRWE, the amyloid nucleation score result was “inactive”. The result for GISRYFYSMCETWMNCHSGV reads 0.793 ± 0.28; that for VMVRTNMCR, “inactive”; that for YNRKWDMQY, “inactive”.

In the case of YVWASIFFFTSYDEVVGRHV, the amyloid nucleation score was found to be 1.46 ± 0.13.

With LADFRGQSLTDEGCMWTSSG, the amyloid nucleation score result is “inactive”. As for SKIFSCYVVLKSMLTDPGVA, the amyloid nucleation score entry was “inactive”. The result for HSIHSDNRVLWLFDWSLSSR reads “inactive”. For the substance ILYSSYS, the amyloid nucleation score result is “inactive”. Regarding RPAVLGPAFRYSSLAP, the amyloid nucleation score entry is “inactive”. Next, ADKRSMMWKFMFSRFCGRVT: “inactive”; LLKPTVRCKPRLK: “inactive”; FCEFWYLNSRKEATELRP: “inactive”.

Regarding IYSSCPFNLTSRMVGF, the amyloid nucleation score result is “inactive”. The result for LRSLLNQVMSYSMYILYNSQ reads “inactive”; that for TSSAHNTRSCLMM, “inactive”.

As to TDIFKSFIRNMNLVWFRVMT, the amyloid nucleation score entry was “inactive”. Turning to KVGTVLWCFTCSAGHRECNG, the amyloid nucleation score was found to be 2.75 ± 0.055. Regarding VLRSNHFD, the amyloid nucleation score entry is “inactive”. The result for MIYLYNKKYMSCRFDTCIIP reads “inactive”; that for PKSYVNTVKVMVVNSQVQLQ, 0.836 ± 0.2. NLNGLMRLQIAVLFQ gave an amyloid nucleation score of 0.577 ± 0.21. Next, VQGSTIGG: “inactive”; FIYSFLSYHIWTFKPPVVVG: “inactive”; WCSPQFRLSFYLGISNDHWC: 0.966 ± 0.09. The result for YGRRMAHAGGVTGYGNLWCH reads “inactive”. The result for YLMVSVNFFSYVLSESRMCG reads 0.85 ± 0.12; that for SSSTANYLSIKFSLSLLKYN, 0.905 ± 0.14; that for CRRPKRNH, “inactive”. FQFCS: the amyloid nucleation score result was “inactive”. The result for LEESFSKNLSKSFYIQ reads “inactive”; that for IGTDWRARAMAALYI, “inactive”; that for GCNHC, “inactive”. Regarding MIVWTHNYLEGELFVSLPLV, the amyloid nucleation score entry was “inactive”.

With SFSCMKDSGPNMCKGLRVKQ, the amyloid nucleation score result is “inactive”. On to ALWWKRGVNMRNPSETRLAM, for which the amyloid nucleation score entry is “inactive”. Next, CEISLV: 0.767 ± 0.16.

In the case of DNSVNKYKKTNVSVISARVR, the amyloid nucleation score result was “inactive”. Next, KLWPM: “inactive”. The result for LITEGYAYFLNWVFRYISYW reads “inactive”. For the substance CNLVDSYNSKRMVNSTSMPF, the amyloid nucleation score entry was “inactive”. The result for AQILYYLYYT reads “inactive”; that for NVDDLGFLFIVDAYINCHFR, 1.58 ± 0.12.

Turning to NSLSIVM, the amyloid nucleation score is -0.523 ± 1.1. On to LFVIHAGMNSTSFFKNMMSC, for which the amyloid nucleation score entry is “inactive”. As to NAALIVCLITFYVLGIFLAG, the amyloid nucleation score entry is “inactive”. The result for YDELY reads “inactive”; that for FWGFAFPFTSHGGPKNLEES, “inactive”. Take GVSLATSYKMLLGVIVLGME: the amyloid nucleation score was 0.697 ± 0.18.

With FMKEVSGRQDLLRPIMIHNA, the amyloid nucleation score entry is “inactive”. Substance WLFLLRPRAGSTHPSTHLDF came in with an amyloid nucleation score of 0.823 ± 0.1. For VFPYFELCVFLPSYFREAET, the amyloid nucleation score entry is “inactive”. The result for NKGMPGPHGANSRYTGVDVG reads “inactive”; that for RCTELVKAISLVVVYIYDEG, “inactive”; that for MIQGSVYPFHLCHLYDISHE, “inactive”. Consider NGSSFCAKCVNVW, for which the amyloid nucleation score is -0.418 ± 0.98. Regarding VSTWVQTPGTHMLGVIVYFE, the amyloid nucleation score result was “inactive”. On to PDVFYILVTALWDVRNSNSF, for which the amyloid nucleation score entry is “inactive”.

As for FVVVHLSVKSIVPAFVSWDR, the amyloid nucleation score is -0.36 ± 0.84. WSFMYVYVC had an amyloid nucleation score of 1.71 ± 0.06.

Regarding MCFGKYLSL, the amyloid nucleation score result is “inactive”. Next, RAGVKNG: “inactive”. Regarding DGDYL, the amyloid nucleation score entry was “inactive”. The result for LYVATS reads “inactive”; that for NYLRLFLISIAYKSVLSVML, “inactive”. Next, SSSSMFALLPICY: “inactive”; EVYDLESGVSITYMCMCVVL: “inactive”; NWSVHTGIDKVKADDGEFQL: “inactive”. For GGSSYTYHNSVDLLDWFCYV, the amyloid nucleation score turned out to be 1.23 ± 0.11.

WVPLDHVGGA: the amyloid nucleation score result is “inactive”. The result for IKGIPKSIGSSSLGLHNHTV reads “inactive”. Next, VKYVNEPVSHSIDWIPSPFP: 0.559 ± 0.24; RDFTSYGCFVASSSLDRSFL: “inactive”; CGVSLDRWSNMQ: “inactive”. MINVPSVSYTMSSVIYTSFK registered an amyloid nucleation score of 2.39 ± 0.055.

For the substance TRGRNTKDGVDGDLPADVLV, the amyloid nucleation score result was “inactive”. Next, ETNQSMY: 1.51 ± 0.075. TYYGCYLVGR came in with an amyloid nucleation score of 0.01 ± 0.66.

With NCNVPRSHGGGFLTYTLMRE, the amyloid nucleation score result is “inactive”. The result for IRLYFQYFLLSG reads 2.35 ± 0.063; that for GSYFRATACPSLFCSFRVEW, “inactive”; that for LVYFFFRVYNGPRMGS, “inactive”. Next, MLFYCFYINGRAARTYKRYS: “inactive”; VANIFVVISIVGVDTRLFIV: 0.519 ± 0.23; TVACNVFYQLCVE: “inactive”. As to VGLWYSDIISVFCLNLMRLV, the amyloid nucleation score entry is “inactive”. As for KCIGDLTSRMDLR, the amyloid nucleation score entry is “inactive”. For AWELEKTTYRRGRAIVVHTP, the amyloid nucleation score result is “inactive”. Next, MHFVELLRLALVL: “inactive”.

As for LLMLCRCKPYFFGFYLCWFR, the amyloid nucleation score result is “inactive”.

Turning to RKSDFVIVSCYQRFGNRELN, the amyloid nucleation score entry is “inactive”.

Turning to YYYLKCFTYCVLLFYYS, the amyloid nucleation score entry was “inactive”.
